Data taken from US20030170704A1, “Substance capable of controlling the inclusion of exon 10 of the tau gene, and its therapeutic use against tauopathies” (Max-Planck-Gesellschaft Zur Foerd Der Wissen. E.V., priority 1999, published 2003).

B1: U2AF65: constitutive splicing factor, expressed from cDNA under the CMV promoter (protein, UniProt P26368 2-475, looked up)
Splicing factor U2AF 65 kDa …: SDFDEFERQLNENKQERDKENRHRKRSHSRSRSRDRKRRSRSRDRRNRDQRSASRDRRRRSKPLTRGAKEEHGGLIRSPRHEKKKKVRKYWDVPPPGFEHITPMQYKAMQAAGQIPATALLPTMTPDGLAVTPTPVPVVGSQMTRQARRLYVGNIPFGITEEAMMDFFNAQMRLGGLTQAPGNPVLAVQINQDKNFAFLEFRSVDETTQAMAFDGIIFQGQSLKIRRPHDYQPLPGMSENPSVYVPGVVSTVVPDSAHKLFIGGLPNYLNDDQVKELLTSFGPLKAFNLVKDSATGLSKGYAFCEYVDINVTDQAIAGLNGMQLGDKKLLVQRASVGAKNATLVSPPSTINQTPVTLQVPGLMSSQVQMGGHPTEVLCLMNMVLPEELLDDEEYEEIVEDVRDECSKYGLVKSIEIPRPVDGVEVPGCGKIFVEFTSVFDCQKAMQGLTGRKFANRVVVTKYCDPDSYHRRDFW
B2: SRp75: serine/arginine-rich (SR) protein splicing regulator, expressed from cDNA under the CMV promoter (protein, UniProt Q08170 1-494, looked up)
Serine/arginine-rich splicing …: MPRVYIGRLSYQARERDVERFFKGYGKILEVDLKNGYGFVEFDDLRDADDAVYELNGKDLCGERVIVEHARGPRRDGSYGSGRSGYGYRRSGRDKYGPPTRTEYRLIVENLSSRCSWQDLKDYMRQAGEVTYADAHKGRKNEGVIEFVSYSDMKRALEKLDGTEVNGRKIRLVEDKPGSRRRRSYSRSRSHSRSRSRSRHSRKSRSRSGSSKSSHSKSRSRSRSGSRSRSKSRSRSQSRSRSKKEKSRSPSKEKSRSRSHSAGKSRSKSKDQAEEKIQNNDNVGKPKSRSPSRHKSKSKSRSRSQERRVEEEKRGSVSRGRSQEKSLRQSRSRSRSKGGSRSRSRSRSKSKDKRKGRKRSREESRSRSRSRSKSERSRKRGSKRDSKAGSSKKKKKEDTDRSQSRSPSRSVSKEREHAKSESSQREGRGESENAGTNQETRSRSRSNSKSKPNLPSESRSRSKSASKTRSRSKSRSRSASRSPSRSRSRSHSRS
B3: hSWAP: specific splicing regulator Suppressor of White Apricot, expressed from the SV40 early promoter (protein, UniProt Q12872 1-951, looked up)
Splicing factor, suppressor …: MYGASGGRAKPERKSGAKEEAGPGGAGGGGSRVELLVFGYACKLFRDDERALAQEQGQHLIPWMGDHKILIDRYDGRGHLHDLSEYDAEYSTWNRDYQLSEEEARIEALCDEERYLALHTDLLEEEARQEEEYKRLSEALAEDGSYNAVGFTYGSDYYDPSEPTEEEEPSKQREKNEAENLEENEEPFVAPLGLSVPSDVELPPTAKMHAIIERTASFVCRQGAQFEIMLKAKQARNSQFDFLRFDHYLNPYYKFIQKAMKEGRYTVLAENKSDEKKKSGVSSDNEDDDDEEDGNYLHPSLFASKKCNRLEELMKPLKVVDPDHPLAALVRKAQADSSTPTPHNADGAPVQPSQVEYTADSTVAAMYYSYYMLPDGTYCLAPPPPGIDVTTYYSTLPAGVTVSNSPGVTTTAPPPPGTTPLPPPTTAETSSGATSTTTTTSALAPVAAIIPPPPDVQPVIDKLAEYVARNGLKFETSVRAKNDQRFEFLQPWHQYNAYYEFKKQFFLQKEGGDSMQAVSAPEEAPTDSAPEKPSDAGEDGAPEDAAEVGARAGSGGKKEASSSKTVPDGKLVKASFAPISFAIKAKENDLLPLEKNRVKLDDDSDDDEESKEGQESSSSAANTNPAVAPPCVVVEEKKPQLTQEELEAKQAKQKLEDRLAAAAREKLAQASKESKEKQLQAERKRKAALFLQTLKNPLPEAEAGKIEESPFSVEESSTTPCPLLTGGRPLPTLEVKPPDRPSSKSKDPPREEEKEKKKKKHKKRSRTRSRSPKYHSSSKSRSRSHSKAKHSLPSAYRTVRRSRSRSRSPRRRAHSPERRREERSVPTAYRVSRSPGASRKRTRSRSPHEKKKKRRSRSRTKSKARSQSVSPSKQAAPRPAAPAAHSAHSASVSPVESRGSSQERSRGVSQEKEAQISSAIVSSVQSKITQDLMAKVRAMLAASKNLQTSAS

Test system: tau exon 10 inclusion (SV10 minigene)
Assay: RT-PCR of tau exon 10 minigene SV10 1:1 co-transfected with splicing regulator cDNA plasmids in COS cells
Assay type: cell-based, human
Settings: 1:1 co-transfection, FIG. 4
Description: Plasmid DNA was purified by cesium chloride banding (Sambrook et al., 1989). The plasmids obtained in Examples 1 and 2 were introduced into cells by the lipofection method (LT1, Panvera).
Plates (100 mm) that had reached ˜30% confluence were transfected with 10 μg of construct DNA or 5 μg of each plasmid for co-transfections. The medium was changed 16 h after transfection, without glycerol shock.
Total RNA was isolated 48 h post-transfection by the TRIzol method (Life Technologies).
For PCR analysis of RNA, 5 mg of total RNA from transiently transfected cells or 1 mg of polyA^+ RNA were reverse transcribed using random hexamer primers and 200 units of reverse transcriptase (RNAase H^− Superscript, Life Technologies), in a total volume of 20 ml for 1 h at 42° C. Part of this reaction mix (5 ml) was then diluted to a final volume of 50 ml, the concentrations of the buffer and dNTPs were adjusted for PCR and the mixture was amplified for 22 cycles. The conditions were: for the endogenous gene, denaturation at 94° C. for 1 min, annealing at 58° C. for 1 min, extension at 72° C. for 1 min; for the constructs, denaturation at 94° C. for 1 min, annealing at 65° C. for 1 min, extension at 72° C. for 1 min.
The primer pair used for the endogenous exon 10 pattern was HT9SmS/1017HT (Table 2b). In the case of transfected cells, the primers INS1 and INS3 (Table 2b) were chosen to only amplify products arising from the constructs.
The RT-PCR experiments were done twice with the polyA^+ RNAs and with total RNAs from three independent transfections, to ensure reproducibility. […] In FIGS. 1-4, the percent of the 10^+ isoform was calculated by scanning the bands from three independent transfections and measuring the areas under the curves (by the IPLab Gel program from Scanalytics).
RT-PCR was performed in a manner as described in Example 4 (using primer pair: INS1/INS3), except that-mammalian cells were analyzed which had been 1:1 co-transfected with tau exon 10 containing minigene constructs (denoted SV 10) and with plasmids containing cDNA of various plicing regulators. […]

| Molecule | effect on tau exon 10 inclusion (10+/10- isoform ratio by RT-PCR) |
| --- | --- |
| B1 | inhibited |
| B2 | inhibited |
| B3 | inhibited |
